Measured values from patent US20040131678A1, “Resorbable bone cement containing active agents” (priority 2001, published 2004).

Columns and labels:
[1] = Release kinetics of bone growth factor and antimicrobial peptide from cement pellets into culture medium; format: physicochemical; conditions: for cumulative release of TGFβ, of the original amount mixed in the cement: ELISA
Procedure: The release kinetics of the bone growth factor and of the antimicrobial peptide from bone substitute have been determined as follows:
In the release experiments the cement powder (40 mg) was mixed on a glass plate with TGFβ-containing liquid (13.3 μl), giving a paste of 53 mg cement with 133 ng TGFβ and 250 μg DHVAR 5. After 1 min of mixing the cement paste was applied into a Teflon mould with a diameter of 5 mm and measuring 1 mm in height. After 2 min the cement pellets were removed from the mould and added to the wells of 12-well culture plates (Costar, Cambridge, Mass., USA). Complete culture medium (Dulbecco's modified Eagle's medium (DMEM, Gibco-BRL Life Technologies Ltd. Paisley, UK) with 10% fetal bovine serum (FBS; Gibco) was added at 1 ml per well, to wells containing a TGFβ DHVAR5 enriched cement pellet as described above. The multiwell plates were incubated at 37° C. in 5% CO2 and 95% humidity. Culture medium was renewed completely at suitable time intervals (0.5, 1, 2, 4, 24, 48 hr and 1, 2, 4 and 8 weeks), and the medium samples were stored at −20° C. until used for TGFβ and DHVAR 5 determination. TGFβ was determined in the collected culture medium samples using a commercially available enzyme-linked immunosorbant assay (ELISA) (Promega, Madison, Wis., USA). A few cement pellets were crushed in the well with a mortar at 48 hr, after removal of the medium. The fragments were incubated in fresh medium for 1 hr; medium was then removed and stored for DHVAR5 and TGFβ determination. The amount of DHVAR5 released was determined by subjecting medium samples to capillary zone electrophoresis. Biological activity against S. aureus was confirmed in a standard killing assay. TGFβ was assayed by standard immunological analysis and by examination of the potency to promote cell growth as described above. The release of TGFβ from a cement pellet that incorporated TGFβ and DHVAR5 (133 ng TGFβ and 250 μg DHVAR 5 in 53 mg cement) at the time of setting of the cement, is shown in FIGS. 3 and 4 respectively. A rapid TGFβ release was found in the first 4 hr followed by a much slower release. The cumulative release found after 4 hr was 0.5% of the original amount of TGFβ mixed in the cement and increased to 1% after 48 hr. Release of TGFβ continued slowly hereafter, with maximal 0.1% released during the next 8 weeks (data not shown).
Similar results were obtained with peptides of Seq. ID Nos. 1-3, 5-7.

S. aureus = test: Standard killing assay of released peptide; format: cell-based; conditions: medium samples from release experiment
Procedure: In the release experiments the cement powder (40 mg) was mixed on a glass plate with TGFβ-containing liquid (13.3 μl), giving a paste of 53 mg cement with 133 ng TGFβ and 250 μg DHVAR 5. After 1 min of mixing the cement paste was applied into a Teflon mould with a diameter of 5 mm and measuring 1 mm in height. After 2 min the cement pellets were removed from the mould and added to the wells of 12-well culture plates (Costar, Cambridge, Mass., USA). Complete culture medium (Dulbecco's modified Eagle's medium (DMEM, Gibco-BRL Life Technologies Ltd. Paisley, UK) with 10% fetal bovine serum (FBS; Gibco) was added at 1 ml per well, to wells containing a TGFβ DHVAR5 enriched cement pellet as described above. The multiwell plates were incubated at 37° C. in 5% CO2 and 95% humidity. Culture medium was renewed completely at suitable time intervals (0.5, 1, 2, 4, 24, 48 hr and 1, 2, 4 and 8 weeks), and the medium samples were stored at −20° C. until used for TGFβ and DHVAR 5 determination. TGFβ was determined in the collected culture medium samples using a commercially available enzyme-linked immunosorbant assay (ELISA) (Promega, Madison, Wis., USA). A few cement pellets were crushed in the well with a mortar at 48 hr, after removal of the medium. […] The amount of DHVAR5 released was determined by subjecting medium samples to capillary zone electrophoresis. […]

LLLFLLKKRKKRKY [DHVAR-5, anti-microbial peptide, synthetic derivative based on histatin 5 carboxyterminal]
antimicrobial peptide released from the cement material ([1]; after 4 days): more than 80% | release of DHVAR 5 from the cement material ([1]; within 48 hours, capillary zone electrophoresis, DMEM with 10% FBS, 37° C.): 70% | Biological activity against S. aureus of released peptide (S. aureus): confirmed

TGFβ
cumulative release of TGFβ, of the original amount mixed in the cement ([1]; after 4 hr, cement pellet 133 ng TGFβ and 250 μg DHVAR 5 in 53 mg cement, DMEM with 10% FBS, 37° C.): 0.5% | cumulative release of TGFβ, of the original amount mixed in the cement ([1]; after 48 hr, same pellet, DMEM with 10% FBS, 37° C.): 1% | TGFβ released during the next 8 weeks ([1]; after the first 48 hr, maximal, data not shown): ≤ 0.1% | TGFβ released within 1 hr after fragmentation ([1]; pellets fragmented at 48 hr, fresh medium 1 hr, data not shown): approximately 0.5%

gentamicin [reference compound]
release kinetics from cement ([1]; in a similar test): incomplete and slow release kinetics
